Assay: yeast display, Sf9 membrane polyspecificity reagent, FACS + sequencing; frameworks hold sequencing errors
In short: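 In a synthetic yeast display library (Saccharomyces cerevisiae BJ5465), nanobody expression was induced with galactose for 36–48 hours. FACS gates were set low and high (top ~1%) using anti-HA fluorescence for expression and streptavidin fluorescence for binding of the Sf9 membrane reagent. Each polyreactivity label is drawn from the gate of origin.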

Row | Sequence | polyreactivity (PSR sort gate)
1 | QVQLVESGGGLVQAGGSLRLSCAASGITFLHYAMGWYRQAPGKERELVARITYSGSSTYYADSVKGRFTISRDNAKNTVYLQMNSVKPEDTAVYYCNARASWGRWSRTGTPRYDYWGQGTQVTVSS | high polyreactivity
2 | QVQLVESGGGLVQAGGSLRLSCAASGITFLKNAMGWYRQAPGKERELVAAISSSGGSTYYADSVKGRFTISRDNAKNTVYLQMNSLKPEDTAVYYCAALSVGKRYRYEYWGQGTQVTVSS | high polyreactivity
3 | QVQLVESGGGLVQAGGSLRLSCAASGITFLSNAMGWYRQAPGKERELVAAISRGGGTTYYADSVKGRFTISRDIAKNTVYLQMNSLKPEDTAVYYCAKGRCSSSRFDYWGQVTQVTVSS | high polyreactivity
4 | QVQLVESGGGLVQAGGSLRLSCAASGITFLYYAMGGYRQAPGKERELVAAITSGGSTYYADSVKGRFTISRDNAKNTVYLQMNSLKPEDTAVYYCAAGTYDGGYHYDYWGEGTQVTVSS | high polyreactivity
5 | QVQLVESGGGLVQAGGSLRLSCAASGITFLYYAMGWYRQAPGKERELVAAISGGGASTYYADSVKGRFTSSRDNAKNTVYLQMNSLKPEDTAVYDCAAGYRDFFRARFGYWGQGTQVTVAS | high polyreactivity
6 | QVQLVESGGGLVQAGGSLRLSCAASGITFLYYAMGWYRQAPGKERELVAAITRGGRTNYADSVKGRFTISRDNAKNTVYLQMNSLKPEDTAVYYCAARRSRPTYYSTGVNYWGQGTQVTVSS | high polyreactivity
7 | QVQLVESGGGLVQAGGSLRLSCAASGITFLYYAMGWYRQAPGKERELVAGISGTGGRTYYADSVKGRFTISRDNAKNTVYLQMNSLKPEDTAVYYCAARRTTWGYGYWGQGTQVTVSS | high polyreactivity
8 | QVQLVESGGGLVQAGGSLRLSCAASGITFNDYALGWYRQAPGKERELDAAIDWSGGRTYYADSVKGRFTISRDNAKNTVYLQMNSLKPEDTAVYYCAAVLYSRLFWYRLDYWGQGTQVTVSS | low polyreactivity
9 | QVQLVESGGGLVQAGGSLRLSCAASGITFNHYAMGWSRQAPGKERELVAVISRTVGSTYYADSVKGRFTISRDNAKNTVYLQMNSLKPEDTAVYYCAARGPRPDGYSGRSDYWGQGTQVTVSS | high polyreactivity
10 | QVQLVESGGGLVQAGGSLRLSCAASGITFNPNAMGLYRQAPGKERELVAVITYRGGSTYYADSVKGRFTISRDNAKNTVYLQMNSLKPEDTAVYYCAAQYIGWHLYWYDYWGQGTQVTVSS | low polyreactivity
11 | QVQLVESGGGLVQAGGSLRLSCAASGITFNRYAMGWYRQAPGKERELVARISLRGGNTYYADSVKGRFTISRDNAKNTVYLQMNSLKPEDTAVYYCAVRGRASLRGTRYGYWGQGTQVTVSS | high polyreactivity
12 | QVQLVESGGGLVQAGGSLRLSCAASGITFNRYAMGWYRQAPGKERELVARISLRGGNTYYADSVKGRFTISRDNAKNTVYLQMNSLKPEDTAVYYCNAPYYSRRGNSWGQGTQVTVSS | high polyreactivity
13 | QVQLVESGGGLVQAGGSLRLSCAASGITFNVNAMGWYRQAPGKERELVAAISWRGGSTYYADSVKGRFTISRDNAKNTVYLQMNSLKPEDTAVYYCAAKLDGSSYYYWGQGTQVTVSS | low polyreactivity
14 | QVQLVESGGGLVQAGGSLRLSCAASGITFNVNAMGWYRQAPGKERELVARITTSGGSTSYADSVKGRFTISRDNAKNTVYLQMNSLKPEYTAVYYCAADRARYYSEYDYWGQGTQVTVSS | low polyreactivity
15 | QVQLVESGGGLVQAGGSLRLSCAASGITFNVYTMGWYRQAPGKERELVAAITSSGGSTYYADSVKGRFTISRDNAKNTVYLQMNSLKPEDTAVYYCAARGWTRYSPSSRWYDYWGQGTQVTVSS | high polyreactivity
16 | QVQLVESGGGLVQAGGSLRLSCAASGITFNYYDMGWYRQEPWKARELVATINRSGGTTYYADSVKGRFTISRDTAKNTVYLQMNTMKPEDTAVYYCNALYSSRGRYHSGYDYWGQGTQVTVSS | high polyreactivity
17 | QVQLVESGGGLVQAGGSLRLSCAASGITFPANAMGWYRQSPGKERELVADISESDGSTYYADSVKGRFTISRDNAKHTVYLQMNRLKPEDTAVYYRAADGTYGTRSDYWGQGTQVTVSS | low polyreactivity
18 | QVQLVESGGGLVQAGGSLRLSCAASGITFPFNAMGWYRQAPGKERELDAAISSTGSTNYADSVKGRFTISRDNAKNTVYLQMNSLKPEDTAVYYCNKRSNYRRGDGRRHLYWGQGTQVTVSS | low polyreactivity
19 | QVQLVESGGGLVQAGGSLRLSCAASGITFPGNAMGWYRQAPGTERELVAVIRKSGTSTYYADSVKGRFTISRDNAKNTVYLQMNSLKPEDTAVYYCAAGGPSTLDDYWGQGTQVTVSS | low polyreactivity
20 | QVQLVESGGGLVQAGGSLRLSCAASGITFPGYAMGWYRQAPGKERELVAAISIGGITYYADSVKGRFTISRDNAKNTVYLQMNSLKPEDTAVYYCAKDVTDPSSRSDPSGDDYWGQGTQVTVSS | low polyreactivity
21 | QVQLVESGGGLVQAGGSLRLSCAASGITFPKYAMGWYRQAPGKERELVAAITKSGGSTYYADSVKGRFTISRDNAKNTVYLQMNSLKPEDTAVYYCAARPRYGEYDYWGQGTQVTVSS | high polyreactivity
22 | QVQLVESGGGLVQAGGSLRLSCAASGITFPLYAMGWYRQAPGKERELVAAITSTGGTTYYADSVKGRFTISRDNAKNTVYLQMNSLKPEDTAVYYCAAEWLVYGYQRGYYYWGQGTQVTVSS | high polyreactivity

Row | Sequence | polyreactivity (PSR sort gate)
23 | QVQLVESGGGLVQAGGSLRLSCAASGITFPPYAMGWYRQAPGKERELVAAISWSGTSTYYADSVKGRFTISRDNAKNPVYLQMNSLKPEDTAVYYCAAVPRHPYHDKYDYWGQGTQVTVSS | high polyreactivity
24 | QVQLVESGGGLVQAGGSLRLSCAASGITFPVYVMGWYRQAPGKERELVAAISNGGDTYYADSVKGRFTISRDNAKNTVYLQMNSLKPVDTAVYYCAAYYSFPNDYGYEYDYWGQGTQVTVSS | low polyreactivity
25 | QVQLVESGGGLVQAGGSLRLSCAASGITFPWYAMGWYRQAPGKERELVAAINLAGNTNYADSVKGRFTISRDNAKNNVYLQMNSLKPEDTSVYYCAARWRYKYTLGYWGQGTQVTVSS | high polyreactivity
26 | QVQLVESGGGLVQAGGSLRLSCAASGITFPWYAMGWYRQAPGKERELVASKTSGASTNYADSVKGRFTISRDNAKNTVYLQMNSLKPEYSAVYYCARDWYSPVYWAAGYDAWGSGYDYWGQGTQVTVSS | high polyreactivity
27 | QVQLVESGGGLVQAGGSLRLSCAASGITFQDYAMGWYRQAPGKERELVAAISKSGGSTYYADSVKGRFTISRDNAKNTVYLQINSLKPEDTAVYYCATRYLYSNRAYDYWGQGKQVTVSS | high polyreactivity
28 | QVQLVESGGGLVQAGGSLRLSCAASGITFQRYALGWYRQAPGKERELVAAITRGGSTNYADSVKGRFTISRDNAKNTVYLQMNSLKPEDTAVYYCAAGARYGYGYWGQGTQVTVSS | high polyreactivity
29 | QVQLVESGGGLVQAGGSLRLSCAASGITFQWYTMGWYRQAPGKERELVATISSGGSTNYADSVKGRFTISRDNAKNTVYLQMNSLKPEDTAVYYCAKQPTVYHHYGLGYWGQGTQVTVSS | low polyreactivity
30 | QVQLVESGGGLVQAGGSLRLSCAASGITFRFNAMGWYRQAPGKERELVAAITSSGGRTYYADSVKGRFTISRDNAKNTVYLQMNSLKPEDTAVYYCNVRRLASYSFPYGYWGQGTQVTVSS | high polyreactivity
31 | QVQLVESGGGLVQAGGSLRLSCAASGITFRGNAMGWYRQAPGKERELVATISSGGITNYADSVKGRFTISRDNAKNTVYLQMNSLKPEDTAVYDCNADNAYGFYRVKYEGYYWGQGTQVTVSS | low polyreactivity
32 | QVQLVESGGGLVQAGGSLRLSCAASGITFRGYAMGWYRQAPGKERELVAAINSGGSTNYADSVKGRFTISRDNAKNTVYLQMNSLKPEDTAVYYCAAGWYYYWGNYLSYAYDYWGQGTQVTVSS | high polyreactivity
33 | QVQLVESGGGLVQAGGSLRLSCAASGITFRGYAMGWYRQAPGKERELVAAISSGGRTNYADSVKGRFTISRDNAKNTVYLQMNSLKPEDTAVYYCAARYRREKAGYRWDIFYWGQGTQVTVSS | high polyreactivity
34 | QVQLVESGGGLVQAGGSLRLSCAASGITFRIYAMGWYRQAPGKEREFVAAINQRGGSTYYADSVKGRFTISRDNAKNTVYLQMNSLKPEDTAVYYCNADYSYVGEYDYWGQGTQVTVSS | low polyreactivity
35 | QVQLVESGGGLVQAGGSLRLSCAASGITFRKYVMGWYRQAPGKERELVATITRNGGTTNYADSVKGRFTISRDNAKNTVYLQMNSLKPEDTAVYYCAAVRRDYDDVYTEYWGQGTQVTVSS | high polyreactivity
36 | QVQLVESGGGLVQAGGSLRLSCAASGITFRNYAMGWYRQAPGKERELVADITTGGSTYADSVKGRFTISRDNAKNTVYLQMNSLKPEDTAVYDCAADRDFRTPRLYYWGQGTQVTVSS | low polyreactivity
37 | QVQLVESGGGLVQAGGSLRLSCAASGITFRRNAMGWYRQAPGTERELVAGISGRGGSTYYADSVKGRFTISRDNAKNTVYLQMNSLKPEDTAVYYCAAVRFRTPTLEYWTRYDYWGQGTQVTVSS | high polyreactivity
38 | QVQLVESGGGLVQAGGSLRLSCAASGITFRRSAMGWYRQAPGKEREVVAAISIRGGRTYYADAVKGRFTISRDNAKNTVYLQMNSLIPEDTAVYYCAADGVYALDVESDYWGLGTQVTVSS | high polyreactivity
39 | QVQLVESGGGLVQAGGSLRLSCAASGITFRRYAMGWYRQAPGKESELVAAITSSGGSTYYADSVKGRFTISRDNAKNTVYLLMISLKPEDTAVYYCAAAFFSQYYLYEYWGQGTQVTVSS | high polyreactivity
40 | QVQLVESGGGLVQAGGSLRLSCAASGITFRRYTMGWYIQAPGKERELVATISLSDGNTYYADSVKGRFTISRDNAKNTVYLQMNSLKPEDTAVYYCNARHTWHQTYDYWGQGTQVTVSS | low polyreactivity
41 | QVQLVESGGGLVQAGGSLRLSCAASGITFRRYTMGWYRQAPGKERELVASISSTGSTNYADSVKGRFTISRDNAKNTVYLQMNSLKPEDTAVYYCAARRPYPYVGYEYWGQGTQVTVSS | high polyreactivity
42 | QVQLVESGGGLVQAGGSLRLSCAASGITFRRYTMGWYRQPPGKERELVATISLSDGNTYYADSVKGRFTISRDNAKNTVYLQMNSLKPEDTAVYYCNARHTWHQTYDYWGQGTQVTVSS | low polyreactivity
43 | QVQLVESGGGLVQAGGSLRLSCAASGITFRSNAMGWYRQAPGKERELVATISYRGASTYYADSVKGRFTISRDNAKNTVYLQMNSLKPEYTSVYYCNVRNRYWRSRVDYWGQGTQVTVSS | high polyreactivity

Reference: the nanobody polyreactivity screen of Harvey et al. (2022)
